# Results taken from FireProtDB (doi:10.1110/ps.051838206).
# Several values for one entry are separate records, joined by “and”; a condition that tells them apart may be missing. Equal values may be shown once.
# B1: Azurin, P00282 (parent)
# chain: MLRKLAAVSLLSLLSAPLLAAECSVDIQGNDQMQFNTNAITVDKSCKQFTVNLSHPGNLPKNVMGHNWVLSTAADMQGVVTDGMASGLDKDYLKPDDSRVIAHTKLIGSGEKDSVTFDVSKLKEGEQYMFFCTFPGHSALMKGTLTLK
# Variants of: B1
# Settings: Pseudomonas aeruginosa (strain ATCC 15692 / DSM 22644 / CIP 104116 / JCM 14847 / LMG 12228 / 1C / PRS 101 / PAO1), pH 7, 25 °C, GdnHCl, Tris-HCl 100 mM, reversible: Yes, structure 5AZU, whole UniProt chain shown
Variant,unfolding free energy (CD),unfolding free energy (Fluorescence),ddG of mutation (higher = less stable) (CD),ddG of mutation (higher = less stable) (Fluorescence)
V115T,29 kJ/mol and 53.5 kJ/mol,29 kJ/mol and 53.5 kJ/mol,–,–
I40T,–,–,10 kJ/mol and 7.99 kJ/mol,10 kJ/mol and 7.99 kJ/mol
I40A,–,18.5 kJ/mol,–,6.49 kJ/mol
I40V,23.4 kJ/mol and 54 kJ/mol,23.4 kJ/mol and 54 kJ/mol,–,–
V42T,21 kJ/mol and 36 kJ/mol,21 kJ/mol and 36 kJ/mol,–,–
V42A,19 kJ/mol,–,5.98 kJ/mol,–
L70V,23.5 kJ/mol and 53 kJ/mol,23.5 kJ/mol and 53 kJ/mol,1.51 kJ/mol and 1 kJ/mol,1.51 kJ/mol and 1 kJ/mol
L70T,15.2 kJ/mol and 45 kJ/mol,45 kJ/mol,9.79 kJ/mol and 9 kJ/mol,9 kJ/mol
I101A,15 kJ/mol,15 kJ/mol,10 kJ/mol,10 kJ/mol
I101T,14.5 kJ/mol and 40 kJ/mol,14.5 kJ/mol and 40 kJ/mol,10.5 kJ/mol and 14 kJ/mol,10.5 kJ/mol and 14 kJ/mol
I101V,24.7 kJ/mol and 53 kJ/mol,24.7 kJ/mol and 53 kJ/mol,–,–
V51T,20.5 kJ/mol and 37 kJ/mol,20.5 kJ/mol and 37 kJ/mol,–,–
